Data reported in publication PMC6017123, “HnRNPA1 Specifically Recognizes the Base of Nucleotide at the Loop of RNA G-Quadruplex”.

Columns and labels:
hnRNPA1 [1] = target: T1, hnRNPA1 (UniProt P09651 1-251+304-372, internal_change); assay: CD; peak shift 265 to 260 nm on protein addition; Na+; EMSA: 10 mM Tris-HCl pH 7.0, 100 mM NaCl, 0.1 mg/mL BSA, 5 mM DTT, 10% glycerol, 30 min room temperature; 8% native PAGE, 1x TBE + 20 mM NaCl, 80 V, 4 C; conditions: protein: recombinant; (pET-15b, Ni-NTA); label: 32P (T4 PNK, 5'); intermolecular dimeric parallel G-quadruplex, 2 strands
T1 sequence (P09651 other isoform, or with tags, fused parts or gaps): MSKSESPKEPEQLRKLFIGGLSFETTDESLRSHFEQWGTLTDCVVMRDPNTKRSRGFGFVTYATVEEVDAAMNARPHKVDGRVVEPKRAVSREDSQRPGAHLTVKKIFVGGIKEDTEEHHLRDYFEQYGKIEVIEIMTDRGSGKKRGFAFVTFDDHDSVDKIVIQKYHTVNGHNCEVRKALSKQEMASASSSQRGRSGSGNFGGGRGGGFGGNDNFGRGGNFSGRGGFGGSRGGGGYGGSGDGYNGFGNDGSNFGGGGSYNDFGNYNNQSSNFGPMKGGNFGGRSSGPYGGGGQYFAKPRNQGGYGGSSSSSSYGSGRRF

hnRNPA1 [2] = target: T1, hnRNPA1; assay: EMSA; 100 mM Na+; EMSA: 10 mM Tris-HCl pH 7.0, 100 mM NaCl, 0.1 mg/mL BSA, 5 mM DTT, 10% glycerol, 30 min room temperature; 8% native PAGE, 1x TBE + 20 mM NaCl, 80 V, 4 C; conditions: protein: recombinant; (pET-15b, Ni-NTA); label: 32P (T4 PNK, 5'); intermolecular dimeric parallel G-quadruplex, 2 strands

Binder	binding result (hnRNPA1 [1])	binding result (hnRNPA1 [2])
UUAGGGUUAGGG (XNA, 2'-O-methyl at positions 7-9 (UmUmAm)) [2'-O-Me-loop-Gq]	binds	–
UUAGGGUUAGGG (structured_RNA) [Native-RNA-Gq]	–	binds
